Assay: label from the status in PepcDB records

Sequence	protein production
MAIGERIHFFRLLRGMTQKYLGTAVGFPERSADVRLAQYETGSRKPKADLTAALAQVLDVSPQALDVPDIDSQIGLMHTLFTLEDVYGLTISEADGEVCLKVNKDKGKKAYELLQMLYVWKEQADKLSAGEISKDDYDRWRYYYPKYDTTQLWAKVPSQQLSDTLVEAFQDKLKKDELEHHHHHH	failed
MGEGGQRATPSVTKIVGGEMAARVRAFDWSKTPLGPREDWSPALRLATDIVLASNFPMALRWGPELVLIYNDGYAPALHERHPSALGQSFYDTTPEFQAALRELHQDILTGTSGGFAFERLPLKVLKNGVLEAAYFTVNYSPVPDETAPNGIGGVLVAAVEISQSVKAEQTLRATQERYQ	failed
MKRNSSIDLMKSCAIFFVISVHFLLNSGFYDMTIHSTLAIFWIGIRTILITCVPLFLVATGFLMNRKELSAQYVLGIVPVIISYIGISLLVWGVLSLVGKGSDFSTAINGIFDYSTDSYSWYVEMYLGLYLFIPLLNIIWNYKKEIKNYHLYIVFIASLLTFLPSLLNSFGKVIPDYWQICYPVSYYFIGAYLYTYQNEIKKISIGKLVTAFLSALTIFTLTDTFASWNQEFQWLDHNDYFGYQTAIMTVLVIAILWRTPIPKWSVRLLKALSTATLTIYLISDLTDQFVYGFFKHEIPNLSQRVIAGPIIIPVAFTSAALLGIFVGKVLNIPFKRKKERKEN	failed
MAMSFSGAVLTGMASSFHSGAKQSSFGAVRVGQKTQFVVVSQRKKSLIYAAKGDGNILDDLNEATKKASDFVTDKTKEALADGEKAKDYVVEKNSETADTLGKEAEKAAAYVEEKGKEAANKAAEFAEGKAGEAKDATK	failed
MIGGSLDAFIGSVHRMAAALDGTIELVCGAFSSNAARSIQTGEALHLPKERIYASYEEMIVQEAQLPADVRMQFVSIVTPNHLHAQPALLALKHGFHVLCEKPLAFSVAEAEQLGIQVKETGLLFGLTHTYTAYPMVKEARDLIAKGKLGTIRKIIVEYPQGWLSAPIESDGQKQAGWRTDPAQAGLSCCVGDIGTHAENIAEYITGLKITELSADVSSVVAGRKLDDDANILLRFDNGAKGVLIASQIANGEENELKIRVYGEHAGLEWLQSEPNTLIVKQNDQPTQLRRAGANHSYLSEHARLHCRIPAGHPEGYIEAMANIYRNFSKAVHSFEDQITHNPLLDYPTIEDGIRGMKFIETVIISGKENATWKQLLEHHHHHH	not failed
MANVDRRQMLLLSGLGATAAVLPVPRAAAVPNQTAASYVFADEFDGPAGSAPSAAKWTIAKARETIQDPTYWEQPGRIGQYRNDRRNVFLDGKSNLVIRAAKDGDTYYSAKLASVWEGGAGHTWEARIKFNCLTAGAWPAFWLGNTGEGELDIIEWYGNGSWPSATTVHAKSNGGEWKTHNIAVDNGWHRWRTQWDAEGARFWLDYTDGAQPYFEVAASSLPDWPFDQPGYTMFVVLNLAVAGSGGGDPSGGTYPADMLVDWVRVW	not failed
MLTDALLAFLHFTAIFVLVTLMAAEAVVLRPDMPPSAVRRLSQYDFFYFLSAMVVLATGLLRLFYGAKGVDFYLHNPWFHAKITVFVLIALATLPPTFAFARWRKQSLKLPEFVPTPAEIKKVRRWVMIEAHAFILLPLCAVMMARGIGIH	failed
MHRVGSAGSNGGSVRTRKEKKLTYVLNDANDTKHCAGINCLDVLKSSVSNDQSYLFTGSRDGTLKRWAFDEDATFCSATFESHVDWVNDAALAGESTLVSCSSDTTVKTWDGLSDGVCTRTLRQHSDYVTCLAVAAKNNNVVASGGLGGEVFIWDIEAALSPVTKPNDANEDSSSNGANGPVTSLRTVGSSNNISVQSSPSHGYTPTIAKGHKESVYALAMNDTGTMLVSGGTEKVLRVWDPRTGSKSMKLRGHTDNVRVLLLDSTGRFCLSGSSDSMIRLWDLGQQRCLHTYAVHTDSVWALACNPSFSHVYSGGRDQCLYLTDLATRESVLLCTKEHPIQQLALQDNSIWVATTDSSVERWPAEVQSPKTVFQRGGSFLAGNLSFNRARVSLEGLNPAPAYKEPSITVPGTHPIVQHEILNNKRQILTKDAAGSVKLWDITRGVVVEDYGKISFEEKKEELFEMVSIPSWFTVDTRLGCLSVHLETPQCFSAEMYSADLKVSGRPEDDKINLARETLKGLLGHWLAKKKHKPKPQVLASGDTLSVKDTKKNLSASKTEESSAASDPVYPPFEFSSVSPPSIITEGSQGGPWRKKITEFTGTEDEKDFPLWCLDAVLNNRLPPRENTKLSFFLHPCEGSSVQVVTLGKLSAPRILRVHKVTNYVVEKMVLDNPLDSLAIDAASVSGGQPQPLFSGNGLLQSGLKPWQKLRPSIEILCNSQVLSPDMSLATVRAYVWKKPEDLILNYRVAIAR	failed
MLSRRASLAAIAIGLIAAAGAAHAQSPLGIGSAEPSFSLGGPFAPLMQWINVHQQMFYRALTGALKAMREDSWALGSLIGLSFAYGVFHAAGPGHGKAVISSYMIANETQLRRGILISFVSALIQGLMAIGLVGAAWLVLRGTSITMTKATQAMEIASFAMVALFGAWLLVRKLWSLRIRREPVPVFATAGEAPAARTNGMGTGLRFQGKPVFADHDHNGTGDLCTACGKSHAPDPMLLKGKNFSLHEAWSAIIAVGLRPCSGAIIVMSFALLNGLYLGGVLSVLAMSLGTAITVSALAIMAVSAKGLAVRFAGPGSRKAAGISHAIEIAGALFVLIMGLLLLGASLQF	failed
MENSDETKMSEEILALVDEFQQAWPLEGFGGALEMKGRRLDLQGIRVLKKGPQDGVARSSCYGDCRSEDDEATEWITFQVKRVKKPKGDHKKTPGKKVETGQIENGHRYQANLEITGPKVASPGPQGKKRDYQRLGWPSPDECLKLRWVELTAIVSTWLAVSSKNIDITEHIDFATPIQQPAMEPLCNGNLPTSMHTLDHLHGVSNRASLHYTGESQLTEVLQNLGKDQYPQQSLEQIGTRIAKVLEKSQTSWVLSSMAALYWRVKGQGKKAIDCLRQALHYAPHQMKDVPLISLANILHNAKLWNDAVIVATMAVEIAPHFAVNHFTLGNVYVAMEEFEKALVWYESTLKLQPEFVPAKNRIQTIQCHLMLKKGRRSP	failed
MEVTNGLNLKDTELRLGLPGAQEEQQLELSCVRSNNKRKNNDSTEESAPPPAKTQIVGWPPVRSNRKNNNNKNVSYVKVSMDGAPYLRKIDLKMYKNYPELLKALENMFKFTVGEYSEREGYKGSGFVPTYEDKDGDWMLVGDVPWDMFSSSCQKLRIMKGSEAPTAL	not failed
MTETNESSGVNLKKDVKFSIIIPAHNEEKYIRKCLDSIAKASEAYKEQTEVIVVLNRCTDKTEEIAKSYNCVTLKNNDKNLSKIRNAGAKIANGEIIVTIDADTIMTESMLSNVDKYLASGKYIGGGVNGKFERISLGIFLSAMLIIIPLLFKYGAISVGIFWCYRKDFMAINGFNENMLMAEDADFAKRLKEWGKKNNKKFGTIKNGMITSCRRFDTYGDWTLLKNPKVILAYLKGNDRKYADKTYYDNQER	failed
SCEKENIGIEVTPVNAKFIITPVVIDATTGTDVTQSAEISFSKGNGTYEGTPELASESININAKYKGMTGSASVTIPALKAGQFGAKEVTIILSENFFAQEESSNSQIETTKHSGFKNNTSDYWYYITVTYTKKEGSEVIKNDYEGDDSEIKNIIDAYNKGVREDKVTLNDVQVLAHSRFSVFVDYMKTTSVYQIIEKSPKRDGNPVASFTVDSYNTIVSPKNEQIPGHGHAPSHGHGHGHGDDSNAGGGIIIAD	not failed
MGVLAEVYEMLNTCNRCGFCHTACKTYKVDGAETMVSRGRVQLIKAVADGVIEADADYEDSINSCLLCGECAVACPSGVSAKELVMAARRDLKLRHGVKPFVKSYALKTLANPNKLERAFKLFGGLGKNVLNKVDGMDYFRGVDIKGMNVAKVPFLNQVPERILVAQPKHKVAFYVGCFLNFSLDDTAHSVVKVLTKNDCEVIIPKEQVCCGLPQYAYGDFETAKVNARKTIDTFMAKDVEAIITACGSCAAMLKEDYLKLFADDAAYLPRVKSFCAKVKEFSEYMAEIGVDESKFHNSTPVKVTYHDPCHMVRGIKVTAQPRQMLKSLPRVEYIEMFEANRCCGASGLVQAFYHEMSTKVTREKAKNIQDSGAEVVATSCPACIMRLQGGVSMAGQKQKVMHVADLMAKAYEN	failed
MICTPKVGLNNQLTKVQFFMTKYNFLFKQQVIEFYLQNDKNSSLTRRHFQLAETTLERWINQFNHSGINGLALLGKKRNYSPEFKLNVIQAVKNGKFSAEAACLHFGIANSGVVSQWLQAFEKQGINGLIPKPKGRPTMKLQYPKMPPKPKTREEELELENLRLRAENAILKKLQELNQQKMQKKPLSLEHHHHHH	failed
MNVLRRFHAWRNQAPLWWWVGLRMSALAVVTMMVIAFGMWCYFNLRYSLILSNVPAEPRAEISQLIEQPRANQARLWELFQRYYDIENFLPGLANPDWWMLGAMMTISVPVILFCGLLASRPLSRQFSQVAFAAHRVSDGDFGARAQVVRGAPDELTALADDFNTMSGRLQQYERELRDSSAMLAHELRTPLNAAMGRVQGMLDDVFPREPEQLRLVHRQLEQINRLIGDLHLVSLARAGQLVLEPESVELRELVAERIEWAGPALREAQMTIHYPTHPALRLHADRHRLGQVLSILIDNALRYAAAGKLLEIEVRRDGTGVQLTVGDRGPGVAPAQLPHLLDRFWRADSSRARHSGGSGLGLAIASAICQAHDGQLVVSNRPGGGLLASVQLPLGR	failed
MFLPKFNPIRSFSPILRAKTLLRYQNRMYLSTEIRKAIEDAIESAPVVLFMKGTPEFPKCGFSRATIGLLGNQGVDPAKFAAYNVLEDPELREGIKEFSEWPTIPQLYVNKEFIGGCDVITSMARSGELADLLEEAQALVPEEEEETKDR	failed
MAEASSLVGKLETEVEIKASAKKFHHMFTERPHHVSKATPDKIHGYGKLTVGKNKIEAVDPEKNLITFKVLEGDLMNEYKSFAFTLQVTPKQGESGSIAHWHLEYEKISEEVAHPETLLQFCVEISKEIDEHLLAEE	failed
MVEVESDSVAERDRSSFLAGHDAIRLAKSCVDSPPERWYAALYQVYADLTKLRCWSNVEVVYSDSATFPTGLLGPLFEEDSMVQELHSAQCILGSERACFHVRCCIVGSPPSGRAINALSPQSETRTEERIITSRREPEVVIAVPMHAMLKLSNLDQALRMSSHIEGIVKNRHVADSSASTHSTDRQAGSRKSSVIFGFVDEDTTTAYYRIREGACESNDRREFSTDDIASCLAQERT	not failed
MEGNKSLVVAHAQRCVVLRFLKFPPNKKKTSEEILQHLQNIVDFGKNVMKDFLGENYVHCGEVVQLPLEFVKQLCLKIQCERPESRCDKDLDTFSGYAMCLPNLTRLQTFHFAEHRPILCVEIKPKCGFIPFSNDVTHEMKHKVCRYCMHQHLKVATGKWKKISKYCPLDLYSGNKQRMHFALRSLLQETQNNLRIFKNGELIYGCGDARSPVADLKELAHHLKPFFFPSNGLASGPHCTKAVIRELVHVITRVLLSSSEKARAGALRLGLQGPRVCEASPFSRSLHNQGKNTSEHSGLPKGCLLYKTLQVQMLDQLDIEGLYPLYKRVEQYLEEFPEERKTLQIDGPYDEVFYQKLLDLSTEDDGTVAFALTKVQQYRVAMTAKDCSIMIALSPCLEHHHHHH	failed
MKQLTILGSTGSIGNSTLSVVRANPELFKVTALVAGRNVREMAQQCLEFSPRYAAMSDEHSAKSLRLLLAEQGSDTEVYSGETAACELAALDDVDQVMAAIVGIAGLPSTLAAIRAGKQVLLANKESLITCGKLFMDEVKRSRAQLLPIDSEHNAIFQSLPERIQRQLGYSSLNENGVSRIILTGSGGPFRETPLSQFSDVTPDQACAHPNWSMGRKISVDSATMMNKGLEYIEARWLFNASAEQIEVVLHPQSVIHSMVRYHDGSILAQMGTPDMRTPIAHAMAYPMRVSSGVAPLDFCKVGALTFTTPDYQRYPCLKLAIDACNAGQAATTALNAANEISVMAFLDSKIRFTDIEVINRTVVEGLLLSEPTSVEEVLVIDRKARDVAAQVIAKLNN	not failed

— a protein production outcome set (Wang et al. 2014)
